Data taken from patent publication US20260207704A1, “STAPLED PEPTIDES AND METHODS THEREOF” (priority 2022, published 2026).
*1 amine or outer side, *2 acyl side, *3 side chain or, on linkers, in order; H or OH if unused. Bridges are numbered along the chain shown (N, C = ends). Primed or numbered codes have the meaning given here. [ ]: non-standard residue; d: D form. PyrS2(6) = (S)-3-amino-1-((pent-4-en-1-yloxy)carbonyl)pyrrolidine-3-carboxylic acid, stapled with another olefin-containing amino acid residue through the olefin group, O=C(OCCCC=[*:3])N1CC[C@@](N[*:1])(C(=O)[*:2])C1; B5(4) = 2-amino-2-(pent-4-en-1-yl)hept-6-enoic acid, stapled through each of its two olefin groups with other olefin-containing amino acid residues, O=C(C(CCCC=[*:3])(CCCC=[*:4])N[*:1])[*:2]; PyrS2″ = (S)-3-amino-1-((pent-4-en-1-yloxy)carbonyl)pyrrolidine-3-carboxylic acid (olefin stapling residue), C=CCCCOC(=O)N1CC[C@@](N[*:1])(C(=O)[*:2])C1; 2F3MeF(3) = aromatic amino acid residue, Cc1cccc(C[C@H](N[*:1])C(=O)[*:2])c1F; Phe(3-COOH) = N[C@@H](Cc1cccc(C(=O)O)c1)C(=O)O; 2F3MeF = Cc1cccc(C[C@H](N[*:1])C(=O)[*:2])c1F; Phe(2-Cl) = N[C@@H](Cc1ccccc1Cl)C(=O)O; Bta = N[C@@H](Cc1csc2ccccc12)C(=O)O; αAllylPro = C=CC[C@@]1(C(=O)O)CCCN1; BztA = aromatic amino acid residue; 4mampiperidine = not defined here; tBuAla = CC(C)(C)C[C@H](N)C(=O)O; 3Thi = N[C@@H](Cc1ccsc1)C(=O)O; Cha = N[C@@H](CC1CCCCC1)C(=O)O; PyrS2(4) = not defined here; TfeGA = not defined here; GlnR = not defined here; PL3 = not defined here; B5 = not defined here

B1: I-109 (peptide)
peptide: Ac-[PL3]D[tBuAla][B5]D[Phe(3-COOH)][tBuAla]AFK[PyrS2(4)][2F3MeF][Bta][GlnR]L-NH2
modifications: staple 1-4; bridge 10-14; reading uncertain; also: PyrS2 tied into a staple, partner not placed, printed as Ac-PL3-Asp-Npg-B5-Asp-3COOHF-Npg-Ala-Phe-Lys*3-PyrS2-2F3MeF-BztA-GlnR*3-Leu-NH2
B2: I-110 (peptide)
peptide: Ac-[PL3]D[tBuAla][B5]D[Phe(3-COOH)][Cha]AFK[PyrS2(4)][2F3MeF][Bta][GlnR]L-NH2
modifications: staple 1-4; bridge 10-14; reading uncertain; also: PyrS2 tied into a staple, partner not placed, printed as Ac-PL3-Asp-Npg-B5-Asp-3COOHF-Cha-Ala-Phe-Lys*3-PyrS2-2F3MeF-BztA-GlnR*3-Leu-NH2
B3: I-90 (peptide)
peptide: Ac-[PL3]D[tBuAla][B5]N[Phe(3-COOH)]QAFK[PyrS2″][3Thi][BztA][GlnR]A-NH2
modifications: staple 1-4 (inferred); bridge 10-14; not fully specified (residue 10, bridges); printed as Ac-PL3-Asp-Npg-B5-Asn-3COOHF-Gln-Ala-Phe-Lys*3-PyrS2-3Thi-BztA-GlnR*3-Ala-NH2; reading uncertain; also: Lys10 and GlnR14 marked *3
B4: I-114 (peptide)
peptide: Ac-[PL3]N[tBuAla][B5]D[TfeGA]AAFK[PyrS2(4)][2F3MeF][Bta][GlnR]A-NH2
modifications: staple 1-4; bridge 10-14; reading uncertain; also: PyrS2 tied into a staple, partner not placed
B5: I-111 (peptide)
peptide: Ac-[PL3]D[tBuAla][B5]D[Phe(3-COOH)][Cha]AFK[PyrS2(4)][2F3MeF][Bta][GlnR]L-NH2
modifications: staple 1-4; bridge 10-14; reading uncertain; also: PyrS2 tied into a staple, partner not placed, printed as Ac-PL3-Asp-Npg-B5-Asp-3COOHF-Cha-Ala-Phe-Lys*3-PyrS2-2F3MeF-BztA-GlnR*3-Leu-NH2
B6: I-50 (peptide)
peptide: Ac-[αAllylPro]D[tBuAla][B5(4)]D[Phe(3-COOH)]K(isophthalate)AFL[PyrS2(6)][Phe(2-Cl)][Bta]K-NH2
modifications: not fully specified (residue 6, bridges); printed as Ac-PL3-Asp-Npg-B5-Asp-3COOHF-[isophthalate]-Lys-Ala-Phe-Leu-PyrS2-2ClF-BztA-Lys-NH2; also: isophthalate on Lys7 side chain is a staple, partner not given here
B7: I-49 (peptide)
peptide: Ac-[αAllylPro]D[tBuAla][B5(4)]D[Phe(3-COOH)]KAFL[PyrS2(6)][3Thi][Bta]K-NH2
modifications: not fully specified (residues 6, 7, bridges); printed as Ac-PL3-Asp-Npg-B5-Asp-3COOHF-[Biphen33COOH]-Lys-Ala-Phe-Leu-PyrS2-3Thi-BztA-Lys-NH2
B8: I-95 (peptide)
peptide: Ac-[αAllylPro]D[tBuAla][B5(4)]D[Phe(3-COOH)][GlnR]AFL[PyrS2″][2F3MeF(3)][BztA][GlnR](4mampiperidine)A-NH2
modifications: staple 1-4 (inferred); not fully specified (bridges); printed as Ac-PL3-Asp-Npg-B5-Asp-3COOHF-GlnR-Ala-Phe-Leu-PyrS2-2F3MeF-BztA-[4mampiperidine]GlnR-Ala-NH2; reading uncertain

Test system: DLD1 reporter
Assay: reporter assay (DLD1 reporter assay)
Format: cell-based
Conditions: read-out: DLD1 4% Abs IC50; DLD1 4%
Text: Various technologies can be utilized for characterizing and/or assessing provided technologies (e.g., agents (e.g., various peptides), compositions, methods, etc.) in accordance with the present disclosure. As described herein, in some embodiments, a useful technology is or comprises fluorescence polarization. In some embodiments, a useful technology assesses LogP or LogD. In some embodiments, a useful technology is or comprises a CHI LogD assay. In some embodiments, a useful technology assesses solubility. In some embodiments, a useful technology is or comprises NanoBRET. In some embodiments, a useful technology is or comprises a reporter assay (e.g., DLD1 reporter assay). In some embodiments, a useful technology is or comprises alphascreen. Certain useful protocols are described in the Examples. Those skilled in the art appreciate that suitable adjustments may be made to such protocols, e.g., according to specific conditions, agents, purposes, etc.
Various technologies can be utilized to assess technologies of the present disclosure. For example, in some embodiments, solubility, LogD, interactions with targets, etc. of various agents such as stapled peptides were assessed using technologies described in WO 2022/261257 (e.g., those in its Examples). In some embodiments, solubility, shake flask LogD, and binding to beta-catenin were assessed. In some embodiments, an assay for assessing interactions, e.g., with beta-catenin, was fluorescence polarization as described in WO 2022/261257. In some embodiments, an assay was Nano-BRET target engagement assay that assessed beta-catenin/TCF4 engagement as described in WO 2022/261257. In some embodiments, an assay was a reporter assay as reported in Example 4 of WO 2022/261257. In some embodiments, an assay was a COLO320DM proliferation assay as reported in Example 4 of WO 2022/261257.

Q: CC(=O)N1CCC[C@]12CC=CCCCC1(CCCC=CCCCOC(=O)N3CC[C@@]4(C3)NC(=O)[C@H](CCCCNC(=O)CC[C@@H](C(=O)N[C@@H](CC(C)C)C(N)=O)NC(=O)[C@H](Cc3csc5ccccc35)NC(=O)[C@H](Cc3ccccc3C(F)(F)F)NC4=O)NC(=O)[C@H](Cc3ccccc3)NC(=O)[C@H](C)NC(=O)[C@H](CC(C)(C)C)NC(=O)[C@H](Cc3cccc(C(=O)O)c3)NC(=O)[C@H](CC(=O)O)NC1=O)NC(=O)[C@H](CC(C)(C)C)NC(=O)[C@H](CC(=O)O)NC2=O (single isomer, unassigned) [I-109, Ac-PL3-Asp-Npg-B5-Asp-3COOHF-Npg-Ala-Phe-Lys*3-PyrS2-2F3MeF-BztA-GlnR*3-Leu-NH2] was tested. Which IC50 did it give?
A: 1000 to 5000 nM

Q: Which IC50 does the source give for CC(=O)N1CCC[C@]12CC=CCCCC1(CCCC=CCCCOC(=O)N3CC[C@@]4(C3)NC(=O)[C@H](CCCCNC(=O)CC[C@@H](C(=O)N[C@@H](CC(C)C)C(N)=O)NC(=O)[C@H](Cc3csc5ccccc35)NC(=O)[C@H](Cc3ccccc3C(F)(F)F)NC4=O)NC(=O)[C@H](Cc3ccccc3)NC(=O)[C@H](C)NC(=O)[C@H](C)NC(=O)[C@H](Cc3cccc(C(=O)O)c3)NC(=O)[C@H](CC(=O)O)NC1=O)NC(=O)[C@H](CC1CCCCC1)NC(=O)[C@H](CC(=O)O)NC2=O (single isomer, unassigned) [I-106, Ac-PL3-Asp-Cha-B5-Asp-3COOHF-Ala-Ala-Phe-Lys*3-PyrS2-2F3MeF-BztA-GlnR*3-Leu-NH2] here?
A: ≤ 1000 nM

Q: CC(=O)N1CCC[C@]12CC=CCCCC1(CCCC=CCCCOC(=O)N3CC[C@@]4(C3)NC(=O)[C@H](CCCCNC(=O)CC[C@@H](C(=O)N[C@@H](CC(C)C)C(N)=O)NC(=O)[C@H](Cc3csc5ccccc35)NC(=O)[C@H](Cc3ccccc3C(F)(F)F)NC4=O)NC(=O)[C@H](Cc3ccccc3)NC(=O)[C@H](C)NC(=O)[C@H](C)NC(=O)[C@H](CN(CC(=O)O)CC(F)(F)F)NC(=O)[C@H](CC(=O)O)NC1=O)NC(=O)[C@H](CC(C)(C)C)NC(=O)[C@H](CC(=O)O)NC2=O (relative stereo) [I-128, Ac-PL3-Asp-Npg-B5-Asp-TfeGA-Ala-Ala-Phe-Lys*3-PyrS2-2F3MeF-BztA-GlnR*3-Leu-NH2] was tested. Which IC50 did it give?
A: 1000 to 5000 nM

Q: With CC(=O)N1CCC[C@]12CC=CCCCC1(CCCC=CCCCOC(=O)N3CC[C@@]4(C3)NC(=O)[C@H](CCCCNC(=O)CC[C@@H](C(=O)N[C@@H](CC(C)C)C(=O)N[C@@H](CO)C(N)=O)NC(=O)[C@H](Cc3csc5ccccc35)NC(=O)[C@H](Cc3ccccc3C(F)(F)F)NC4=O)NC(=O)[C@H](Cc3ccccc3)NC(=O)[C@H](C)NC(=O)C3(CC3)NC(=O)[C@H](Cc3cccc(C(=O)O)c3)NC(=O)[C@H](CC(=O)O)NC1=O)NC(=O)[C@H](CC(C)(C)C)NC(=O)[C@H](CC(=O)O)NC2=O (relative stereo) [I-139, Ac-PL3-Asp-Npg-B5-Asp-3COOHF-Cpg-Ala-Phe-Lys*3-PyrS2-2F3MeF-BztA-GlnR*3-Leu-Ser-NH2] as the molecule, how does the IC50 read?
A: ≤ 1000 nM

Same assay, conditions: read-out: DLD1 4% Abs IC50; DLD1 reporter, 4%

Q: For CC(=O)N1CCC[C@]12CC=CCCCC1(CCCC=CCCCOC(=O)N3CC[C@@]4(C3)NC(=O)[C@H](CCCCn3cc(nn3)C[C@@H](C(=O)N[C@@H](C)C(N)=O)NC(=O)[C@H](Cc3csc5ccccc35)NC(=O)[C@H](Cc3ccsc3)NC4=O)NC(=O)[C@H](Cc3ccccc3)NC(=O)[C@H](C)NC(=O)[C@H](C)NC(=O)[C@H](Cc3cccc(C(=O)O)c3)NC(=O)[C@H](CC(=O)O)NC1=O)NC(=O)[C@H](CC(C)(C)C)NC(=O)[C@H](CC(=O)O)NC2=O (stereo partly drawn) [I-337, Ac-PL3-Asp-Npg-B5-Asp-3COOHF-Ala-Ala-Phe-TriAzLys*3-PyrS2-3Thi-BztA-sAla*3-Ala-NH2], which IC50 is on record?
A: ≤ 1000 nM

Molecular target: beta-catenin (human)
Sequence (B6V8E6 146-665 limits assumed): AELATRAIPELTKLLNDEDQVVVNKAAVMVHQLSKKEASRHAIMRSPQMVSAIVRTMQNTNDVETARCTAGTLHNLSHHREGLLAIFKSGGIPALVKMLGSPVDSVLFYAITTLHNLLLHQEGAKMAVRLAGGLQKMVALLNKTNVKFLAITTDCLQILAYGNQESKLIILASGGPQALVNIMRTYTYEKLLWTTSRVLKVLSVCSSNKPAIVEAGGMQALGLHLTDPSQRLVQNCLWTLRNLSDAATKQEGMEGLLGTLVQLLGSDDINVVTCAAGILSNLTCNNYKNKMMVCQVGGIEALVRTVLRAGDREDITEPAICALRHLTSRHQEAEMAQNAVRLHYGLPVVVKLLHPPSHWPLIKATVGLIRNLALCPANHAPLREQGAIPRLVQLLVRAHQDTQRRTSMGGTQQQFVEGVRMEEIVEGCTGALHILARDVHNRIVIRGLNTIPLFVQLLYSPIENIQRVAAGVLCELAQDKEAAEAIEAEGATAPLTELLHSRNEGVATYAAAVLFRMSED
Assay: fluorescence polarization; bin >50 nM
Conditions: not given

Q: Which IC50 does the source give for B1 here?
A: < 200 nM

Q: Which IC50 does the source give for B2 here?
A: < 200 nM

Q: For B3, which IC50 is on record?
A: < 200 nM

Q: How did the IC50 turn out when B4 was run?
A: < 200 nM

Q: How did the IC50 turn out when B5 was run?
A: < 200 nM

Q: Which IC50 does the source give for B6 here?
A: < 200 nM

Q: B7 was tested. Which IC50 did it give?
A: < 200 nM

Q: For B8, which IC50 is on record?
A: < 200 nM
